assay: yeast display, Sf9 membrane polyspecificity reagent, FACS + sequencing; frameworks hold sequencing errors
Method in brief: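 Polyreactivity labels are assigned by the sorting gate from which each nanobody was recovered. The gates were low and high (top ~1%), set on anti-HA fluorescence for expression and streptavidin fluorescence for reagent binding. Before sorting, galactose-induced (36–48 hours) yeast display cells were stained for 1 hour at 4 °C with 10% biotinylated, detergent-solubilized Sf9 membrane reagent.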

Which “polyreactivity (PSR sort gate)” value does the source give for “QLQLVESGGGLVQAGGSLRLSCAASGRIFGKNDMRSYRQAPGKERELVAAITTSGGSTDYADSVKGRFTISRDKAKNTVYLQMNSLKPEDTAVYYCNAAFQNKAYIRKYKYDYWGQGTQVTVSS” here?
Its value is “low polyreactivity”.

Which “polyreactivity (PSR sort gate)” value does the source give for “QVQLVDSGGGLVQAGGSLRLSCAASGITFGRNTMGGYRQAPGKERELVAAIDSGGNTYADSVKGRFTISRDNAKNSVYLQMNSLKPEDTAVYYCAVDGGEFSSYGYWGQGTQVTVSW” here?
The value was “low polyreactivity”.

With “QVQLVESGGGLVQAGGSLRLSCAASGSTFREYAMGWYRQAPGKERELVAAISSGDSTNYADSVKGRFTISRDNAKNTVYLQMNSLKPEDTAVYYCAADAPGAAAVQNDYWGQGTQVTVSS” as the sequence, how does the “polyreactivity (PSR sort gate)” value read?
Its value is “low polyreactivity”.

With “QVQLVESGGGLVQAGGSLRLSCAASGSTFATYAMGWYRQAPGKERELVAAISKSGGSTYYADSVKGRFTISRDNAKNTVYLQMNSLKPEDTAVYYCAAVGPYRWYDYWGQGTQVTVSS” as the sequence, how does the “polyreactivity (PSR sort gate)” value read?
Its value is “high polyreactivity”.

With “QVQLVESGGGLVQAGGSLRLSCAASGSIFYSNAMGWYRQAPGKERELVAAISWSGGSTYYADSVKGRFTISRDYAKNTVYLQMNSLKPEDTAVYYCAASYDIYYYDAASLDDYDYWGQGTQVTVSS” as the sequence, how does the “polyreactivity (PSR sort gate)” value read?
The value was “low polyreactivity”.

Which “polyreactivity (PSR sort gate)” value does the source give for “QVQIVESGGGLVQAGGSLRLSCAASGFIFDYNAMGWYRQAPGKERELVAAISYSGGRTSYADSVKGRFTISRDNAKNTVYLQMNSLKPEDTAVYYCAKDNYVDFGGYYYPRMYYWGQGTQVTVSS” here?
Its value is “high polyreactivity”.

Which “polyreactivity (PSR sort gate)” value does the source give for “QVQLVESGGGLVQAGGSLRLSCAASGRIFVVNAMGWYRQAPGKERELVATITRSGGITYYADSVKGRFTISRDNAKNTVYLQMNSLNPEDTAVYYCNADVLFYTYYTRGRFDFDYWGQGTQVTVSS” here?
Its value is “low polyreactivity”.

With “QVQLQESGGGLVQAGGSLRQSYAASGYIFPSLAMGWYRQAPGKEREFVAAIGRGSTNNYADSVKGRFTISRDNAKKTAYQQMNSLKPEDTAVYYCAAAASPLTRHLYWGQGTQVTVSS” as the sequence, how does the “polyreactivity (PSR sort gate)” value read?
Its value is “low polyreactivity”.

With “QVQLVQSGGGLVQAGGSLRLSCAASGSIFAVYGMGWNRQAPGKERELVASISTGVSTNYADSVKGRFTISRDNAKNTVYLQRHSLKPEDTAVYYCAKTIYKSRVSYGSWGQGTQVTVSS” as the sequence, how does the “polyreactivity (PSR sort gate)” value read?
The value was “low polyreactivity”.

With “QVQLVESGGGLVQAGGSLRLSCAASGSIFSAYAMGWYRQAPGKERELVAAISSRGSRTYYAYSVKGRFTISRDYAKNSVYLQMNSLKPEDTAVYYCAADPFSSYYKMDYWGQGTQVTVSS” as the sequence, how does the “polyreactivity (PSR sort gate)” value read?
Its value is “high polyreactivity”.

With “QVQLVESGGGLVQAGGSLRLSCAASGNTFSSYAMGWYRQAPGKERELVAAISRRGGSTYYADSVKGRFTISRDNAKNTVYLQMNSLKPEDTAVYYCAADGTGFRYLRYDYWGQGTQVTVSS” as the sequence, how does the “polyreactivity (PSR sort gate)” value read?
Its value is “high polyreactivity”.

With “QVQLVESGGGLDQAGGSLRLSCAASGFIFKYYVMGWYRQAPGKERELVAAISLSDARTNYADSVKGRFTISRDNAKNTVYLQMHSLKPVDTAFYYCAAKSHYYTSGHRHYDYWGQGTQVTVSS” as the sequence, how does the “polyreactivity (PSR sort gate)” value read?
The value was “high polyreactivity”.

For “QVQLVESGGGLVQAGGSLRLSCAASGRIFAPYAKGRYRQAPGKERELVAAIRWRGGSTSYADSVKGRFTISRDNAKNTVYLQLNSLKPEDSAVYSCNADYGFSFYWYDYWGHGTQVTVSS”, which “polyreactivity (PSR sort gate)” value is on record?
Its value is “low polyreactivity”.

With “QVQLVESGGGLVQAGGSLRLSCAASGSIFQSYAMGWYRQAPGKERELVATITISDGSTYYADSVKGRFTISRDNAKNTVYLQMNSLKPEDTAVYYCAATDYISYGAPLRRGLNYDYWGQGTQVTVSS” as the sequence, how does the “polyreactivity (PSR sort gate)” value read?
The value was “low polyreactivity”.

With “QVQLVESGGGLVQAGGSLRLSCAASGRTFRKYAMGWYRQAPGKERELVAAISWSGGSRYYANSVKGRFTISRDNAKNTVYLQMNSLKPEETAVYYCSAVPVHTGSLYWGFTTGYDYWGQGTQVTVSS” as the sequence, how does the “polyreactivity (PSR sort gate)” value read?
Its value is “low polyreactivity”.

For “QVQLVESGGGLVQARGSLRLSCAASGIIFKGYAMGWYRQAPGKERELVAGITRYGGGTYYADSVKGRFTISRDNAMNTVYLQMNRLKPEDTAVYYCAAVRIARAVQDYDYWGQGTQVTVSS”, which “polyreactivity (PSR sort gate)” value is on record?
Its value is “high polyreactivity”.

With “QVQLVESGGGLVQAGGSLRLSCAASGRIYVNAMGWYRQAPGKERELVAAIRSGGSTNYADSVKGRFTISRDNAKNTVYLQMNSLKPEDTAVYYCNARRRDYRHWYDYWGQGTQVTVSS” as the sequence, how does the “polyreactivity (PSR sort gate)” value read?
The value was “high polyreactivity”.

Which “polyreactivity (PSR sort gate)” value does the source give for “QVQLVESGGGLVQAGGSLRLSCAASGFTFGVYAMGWYRQAPGKERDLVAAISTTVGSTYYADSVKGRFTISRDNAKNTVYLQMNSLKPEDTAVDYCAAEYTGYINYYIYEYWGQGTQVTVSS” here?
The value was “low polyreactivity”.

Which “polyreactivity (PSR sort gate)” value does the source give for “QVQLVETGGGLVQAGGSLRLSCAASGRTFRYNAMGWYRQAPGKERELVAAITGSGGSTYYADSVKGRFTISRDNAKNTVYLQMNSLKPEDTAVYYCARAYSYRLYPYGSWGQGTQVTVSS” here?
The value was “high polyreactivity”.

Which “polyreactivity (PSR sort gate)” value does the source give for “QVQLVESGGGLVQAGGSLRLSCAASGRSFSKYAMGWYRQAPGKERDLVAGISRSGGSTYYADSVKGRFTISRDNAKNSVYLQMNSLKPEDTAVYYGAAVRRDYDDVYTEYWGQGTQVNVSS” here?
The value was “high polyreactivity”.

With “QVQLVESGGGLVQAGGSLRLSCAASGSTFVYNAMGWYRQAPGKERELVAAIRTTGTGTYYADSVKGRFTISRDNAKNTVYLQMNSLKPEDTAVYYCATDYNYWKLDFGYWGQGTQVTVSS” as the sequence, how does the “polyreactivity (PSR sort gate)” value read?
The value was “high polyreactivity”.

With “QVQLVESGGGLVQAGGSLRLSCAASGSIFAAYTMGWYRQAPGKERELVAAISVSTVSTYYADSVKGRFTISRDNAKNTVYLLMNSLKPEDTAVYYCNAVATDSYPEKDEHDSWGQGTQVTVSS” as the sequence, how does the “polyreactivity (PSR sort gate)” value read?
Its value is “low polyreactivity”.

For “QVQLVESGGGLVQAGGSLRVSCAASGSTFTDYDMVWYRQAPGKERELVAAITSGGSTNYADSVKGRFTISRDNAKNTVYLHMNSLKPEDTAVYYCNAERDSPTLNLDRGWEYDYWGQGTQVTVSS”, which “polyreactivity (PSR sort gate)” value is on record?
The value was “low polyreactivity”.

With “QVQLVESGGGLVQAGGSLRLSCAASGITSRFNAMGWYRQAPGKERELVAAISSRGTSTYYADSVKGRFTISRDNAKNTVYLQMNTLKPEDTAVYYCAVSQRAPKFPGDYWGQGPQVTVSS” as the sequence, how does the “polyreactivity (PSR sort gate)” value read?
The value was “high polyreactivity”.

With “QVQLVESGGGLVQAGGSLRLSCASSGSIIVVYGMGWYRQAPGKERELVAAISGGITNYADSVKGRFTISRDNAMNTVYLQMNILIPEDTAVYYCATVDGAYQYTYDYWGQGTQVTVSS” as the sequence, how does the “polyreactivity (PSR sort gate)” value read?
The value was “low polyreactivity”.

For “QVQLVESRGGLVQAGGSLRLSCAASGRIFASYTMGWYRQAHGKERELVAAISWRGDGTYYADSVKGRFTISRDNAKNTVYLQMNSLKPEDTAVYYCAADYVYYYHEYDYWGQGTQVTVSS”, which “polyreactivity (PSR sort gate)” value is on record?
The value was “low polyreactivity”.

Which “polyreactivity (PSR sort gate)” value does the source give for “QVQLVESGGGLVQAGGSLRLSCAASGGIFNRYAMGWYRPAPGKERELVAGITRSGGSTSYADSVKGRFTISRDNAKNTVYLQMNSLKPEDTAVYYCNKVAYYASSSYYRFGAYGYWGQGTQVTVSS” here?
The value was “high polyreactivity”.

With “QVQLVESGGGLVQAGGSLRLSCAASGIILYRNGMGWYRQAPGKERELVAVISRRGGTYYADSVKGRFTISRDNAKITVYLQLNSLKPEDTAVYYCAAYLSPIGNFRGGGDYWGQGTQVTVSS” as the sequence, how does the “polyreactivity (PSR sort gate)” value read?
Its value is “high polyreactivity”.

With “QVQLVESGGGLVQAGGSLRLSCAASGRTLARNAMGWDIQGPGKERELVASINGRTTRTYYADSVKGRFTISRDNAKNTVYLQMNSLKPEDTAVYYCAAERKNKYDYWGQGTQVTVSS” as the sequence, how does the “polyreactivity (PSR sort gate)” value read?
The value was “high polyreactivity”.

With “QVQLEESGGGLVQAGGSLRLSCAASGSTFVGNAMGWYRQAPGKERELVAAISFSGGSTYYADSVKGRFTISRDNAKNTVYLQMNSLKPEDTAVYYCAKKTRYRSRGMNYWGQGTQVTVSS” as the sequence, how does the “polyreactivity (PSR sort gate)” value read?
Its value is “high polyreactivity”.

With “QLQLVESGGGLVQAGGSLRLSCAASGSIFRGYAMGWYRQAPGKERELVAAISWSGGRTYYADSVKGRFTISRDYAKNTVYLQMNSLKPEDTSVFYCNAASLRYSYTLFDCWGQGTQVTVSS” as the sequence, how does the “polyreactivity (PSR sort gate)” value read?
Its value is “high polyreactivity”.

For “QVQLVESGGGLVQAGGSLRLSCAASGNICRINGMGWYRQAPGKERELVASITRSGSTYYADSVKGRFTISRDNAKNTVYLQMNSLKPEDTAVYYCNADGWYWQAQGYDYWGQGTQVTVSS”, which “polyreactivity (PSR sort gate)” value is on record?
Its value is “low polyreactivity”.

For “QVQLVESGGGLVQAGGSLRLSCAASGFIFYRNTMGWYRQAPGKEREFVAAIRWRGGSTYYADSVKGRFTISRDNAKNTFYLQLNSVKPEDTAVYYCAADTRPGYSGFEYWGQGTQVTVSS”, which “polyreactivity (PSR sort gate)” value is on record?
The value was “high polyreactivity”.

For “QVQLVESGGGLVQAGGSLRLSCAASGITIPVYMGWYRQPPGKERELVASISTIGGTTYYADSVKGRFTITRDNAKNTVYLQMNRLKPEDSAVYYCAADHPWSWYDYWGQGTQVTVSW”, which “polyreactivity (PSR sort gate)” value is on record?
The value was “low polyreactivity”.

For “QVQLVESGGGLVQAGGSLRLSCAASGRIFSSYAMGWYRQAPWKERELVAAISGSGGRTYYADSVKGRFTISRDNAKNTVYLQMNSLKPEDTAVYYCNARRRSPYSTGVAYDYWGQGTQVTVSS”, which “polyreactivity (PSR sort gate)” value is on record?
The value was “high polyreactivity”.

Which “polyreactivity (PSR sort gate)” value does the source give for “QVQLVESGGGLVQAGGSLRLSCAASGFIFRYYAMGWYRQAPGKERELVAAISWSGGSTYYADSVKGRFTISRDNAKNTVYLQMNSLKPEDTAVYYCNARYKYLFTVSRYDYWGQGTQVTVSS” here?
Its value is “high polyreactivity”.

Which “polyreactivity (PSR sort gate)” value does the source give for “QVQLVESGGGLVQAGGSLRLSCAASGSTFFPNAMGWYRQAPGKERELVAAIRWRGGTYYADSVKGRFTISRDNAKNTVYLQMNSLKQEDTAVYYCATSVKPSYDYWGQGTQVTVSS” here?
The value was “low polyreactivity”.

With “QVQLVESGGGLVQAGGSLRLSCAASGSTFDYYAMGWYRQAPGKERELVAAISRTGGRTYYADSVKGRFTISRDNAKNTVYLQMNSLKPEDTAVYYCNAVTRIGGGDYDYWGQGTQVTGSS” as the sequence, how does the “polyreactivity (PSR sort gate)” value read?
The value was “low polyreactivity”.

For “QVQLVESGGGLVQAGGSLRLSCAASGFIFDRNTMGWYRQAPGKERELVAAISRSGGSTYYADSVKGRFTISRDNAKNTVYLQMNSLKPEDTAVYYCAALYYYRNRSYDYWGQGTQVTVSS”, which “polyreactivity (PSR sort gate)” value is on record?
Its value is “high polyreactivity”.

Which “polyreactivity (PSR sort gate)” value does the source give for “QVQLVESGGGLVQAGGSLRLSCAASGRIFSTYAMGWYRQAPGKERELVAAINKIGGSTYYADSVKGRFTISRDNAKNTVYLQMNSLIPEDTAVYYCAADAPYYPVRRYYYWGQGTQVTVSS” here?
The value was “low polyreactivity”.

With “QVQLVESGGGLVQAGGSLRLSCADSRFNYSYNAMGSYRKAPGKERELVAAISTSGGRTYYADSVKGRFTISRDNAKNTVYLQMNSLKPEDTAVYYCAALSRNQYDPQSYVYWGQGTQVTGSS” as the sequence, how does the “polyreactivity (PSR sort gate)” value read?
Its value is “high polyreactivity”.

Which “polyreactivity (PSR sort gate)” value does the source give for “QVQLVESGVGLVQAGGSLSLSCAASGCTLRYYVMGWYRQAPGKERELVASISWSGDSTYYADSVKGRFTISRDNAKNTVYLQMNSLKPEDTAVYYCAARRWYVHYFAYGYWGQGTQVTVSS” here?
Its value is “low polyreactivity”.

With “QVQLVESGGGLVQAGGSHRLRCAASGRIFHVYAMGWYRQAPGKERELVAAISSGDRTYYADSVKGRFIISRDNAKNTVYLQMISLKPEDTAVYYCWRYPADESNYWGQGTQVTVSS” as the sequence, how does the “polyreactivity (PSR sort gate)” value read?
The value was “low polyreactivity”.

— the nanobody polyreactivity screen of Harvey et al. (2022)
